target: Grb2 SH2 (UniProt P62993); assay: SH2 binding enrichment of the phosphorylated peptide, bacterial display (enrichment ratio); higher = better substrate or ligand; peptides without Tyr show the background
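For SH2 binding enrichment of the phosphorylated peptide, bacterial display in this document: peptide library displayed on the E. coli surface as eCPX fusions, selected cells deep-sequenced, score is each peptide's frequency after selection divided by its frequency in the input.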
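For phosphorylation enrichment, bacterial display in this document: 11-residue human phosphosite peptides and single-mutation variants displayed on the E. coli surface, counted by deep sequencing, each peptide's frequency after selection divided by its frequency in the unselected input library; frequency after pTyr selection over input frequency; kinase dosed for 20-30% of maximal phosphorylation in three min.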

Sequence of Grb2 SH2 (P62993 whole entry, looked up, the tested form may be a part): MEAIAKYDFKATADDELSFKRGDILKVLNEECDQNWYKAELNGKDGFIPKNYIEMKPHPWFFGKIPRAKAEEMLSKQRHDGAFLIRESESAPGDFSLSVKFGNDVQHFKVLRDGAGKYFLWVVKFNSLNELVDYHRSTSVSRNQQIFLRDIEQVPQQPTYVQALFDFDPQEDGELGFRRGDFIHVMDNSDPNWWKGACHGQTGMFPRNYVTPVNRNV

| Sequence | SH2 binding enrichment |
| --- | --- |
| QEGPEYWDQET [HLA-A_Y83] | 0.819 |
| RSYSPCDYQPC [TNS1_Y796_Y796C] | 0.759 |
| DIDKIYVRTGI [PIK3CA_Y355] | 0.864 |
| LVMFIDAIFGM [SCN1A_Y1684_Y1684D] | 1.15 |
| ASGKYYAMKIL [AKT3_Y174] | 0.957 |
| VNNTVYGIDAM [EIF3J_Y143_A141T] | 0.984 |
| LSSLAYSGKDA [FXN_Y205] | 0.683 |
| FGISGYVVDSV [MAP2K3_Y214_L215V] | 0.742 |
| ENRKFYKDLKE [PURA_Y156_M157K_YF] | 0.847 |
| HDRREYSRFEK [ITGB7_Y758_Y753H] | 0.965 |
| SSVAGYACLAY [MVD_Y131_A128V] | 0.777 |
| VRVQLYDPDFM [CYP4A22_Y100_Y104F] | 0.972 |
| KDKLPYPYDDP [GPX2_Y125] | 0.889 |
| GLDSSYLLRDS [SH2D1A_Y29_G27S] | 0.908 |
| KFVKMYDNHQL [MYO9A_Y203_YF] | 0.79 |
| SSMNDYNPLEK [MYOC_Y479_I477N] | 0.848 |
| TDKLFYIFTSG [SLC27A4_Y243_YF] | 0.851 |

| Sequence | SH2 binding enrichment |
| --- | --- |
| FGRTFYNQANM [MCCC2_Y196_I200N] | 0.706 |
| VFGEEYEEQPR [ZMYM2_Y1033] | 1.01 |
| SGPRHYTIAAL [TTR_Y125_R124H] | 1.06 |
| YRDMDYRSYPH [RBM10_Y41_R46H] | 0.998 |
| RSGNCYLDIRP [FBN1_Y1535] | 0.688 |
| IHKEFYDGLFP [BCR_Y561] | 0.946 |
| KQFWRYFPGNL [SLC25A4_Y112_A114P] | 1.18 |
| KSSDVYVSFDF [SORL1_Y136_YF] | 0.891 |
| PKEQKYSFLQN [GH1_Y68] | 0.909 |
| ILCTVYAFKTR [GRM3_Y754] | 1.3 |
| PSALGYSPSLH [LLGL2_Y40_R45H] | 0.827 |
| PVQAPYQKVVA [HBB_Y131_A130P] | 0.8 |
| QGIIIYKAAFF [SLC25A4_Y187_R188K_YF] | 1.36 |
| GIVEDYRPPLY [ACVRL1_Y421_F425L] | 0.859 |
| LHNLFYQLEAE [PKP2_Y616_S615F] | 1.02 |
| DTKDDYNALSV [IL17RB_Y457] | 0.869 |

target: SHP2-C SH2; assay: as above

| Sequence | SH2 binding enrichment |
| --- | --- |
| QEGPEYWDQET [HLA-A_Y83] | 0.354 |
| RSYSPCDYQPC [TNS1_Y796_Y796C] | 0.421 |
| DIDKIYVRTGI [PIK3CA_Y355] | 0.757 |
| LVMFIDAIFGM [SCN1A_Y1684_Y1684D] | 1.15 |
| ASGKYYAMKIL [AKT3_Y174] | 0.941 |
| VNNTVYGIDAM [EIF3J_Y143_A141T] | 0.533 |
| LSSLAYSGKDA [FXN_Y205] | 0.885 |
| FGISGYVVDSV [MAP2K3_Y214_L215V] | 0.605 |
| ENRKFYKDLKE [PURA_Y156_M157K_YF] | 0.739 |
| HDRREYSRFEK [ITGB7_Y758_Y753H] | 0.873 |
| SSVAGYACLAY [MVD_Y131_A128V] | 3 |
| VRVQLYDPDFM [CYP4A22_Y100_Y104F] | 0.67 |
| KDKLPYPYDDP [GPX2_Y125] | 0.757 |
| GLDSSYLLRDS [SH2D1A_Y29_G27S] | 0.64 |
| KFVKMYDNHQL [MYO9A_Y203_YF] | 0.502 |
| SSMNDYNPLEK [MYOC_Y479_I477N] | 0.616 |
| TDKLFYIFTSG [SLC27A4_Y243_YF] | 0.825 |

| Sequence | SH2 binding enrichment |
| --- | --- |
| FGRTFYNQANM [MCCC2_Y196_I200N] | 0.556 |
| VFGEEYEEQPR [ZMYM2_Y1033] | 0.971 |
| SGPRHYTIAAL [TTR_Y125_R124H] | 1.19 |
| YRDMDYRSYPH [RBM10_Y41_R46H] | 0.825 |
| RSGNCYLDIRP [FBN1_Y1535] | 0.782 |
| IHKEFYDGLFP [BCR_Y561] | 0.77 |
| KQFWRYFPGNL [SLC25A4_Y112_A114P] | 0.863 |
| KSSDVYVSFDF [SORL1_Y136_YF] | 0.715 |
| PKEQKYSFLQN [GH1_Y68] | 1.06 |
| ILCTVYAFKTR [GRM3_Y754] | 0.985 |
| PSALGYSPSLH [LLGL2_Y40_R45H] | 0.695 |
| PVQAPYQKVVA [HBB_Y131_A130P] | 1.3 |
| QGIIIYKAAFF [SLC25A4_Y187_R188K_YF] | 0.446 |
| GIVEDYRPPLY [ACVRL1_Y421_F425L] | 0.783 |
| LHNLFYQLEAE [PKP2_Y616_S615F] | 0.909 |
| DTKDDYNALSV [IL17RB_Y457] | 0.668 |

target: c-Src SH2; assay: as above

| Sequence | SH2 binding enrichment |
| --- | --- |
| QEGPEYWDQET [HLA-A_Y83] | 0.588 |
| RSYSPCDYQPC [TNS1_Y796_Y796C] | 1.17 |
| DIDKIYVRTGI [PIK3CA_Y355] | 0.539 |
| LVMFIDAIFGM [SCN1A_Y1684_Y1684D] | 0.698 |
| ASGKYYAMKIL [AKT3_Y174] | 1.43 |
| VNNTVYGIDAM [EIF3J_Y143_A141T] | 0.564 |
| LSSLAYSGKDA [FXN_Y205] | 0.59 |
| FGISGYVVDSV [MAP2K3_Y214_L215V] | 0.719 |
| ENRKFYKDLKE [PURA_Y156_M157K_YF] | 0.426 |
| HDRREYSRFEK [ITGB7_Y758_Y753H] | 0.722 |
| SSVAGYACLAY [MVD_Y131_A128V] | 2.24 |
| VRVQLYDPDFM [CYP4A22_Y100_Y104F] | 0.536 |
| KDKLPYPYDDP [GPX2_Y125] | 1.67 |
| GLDSSYLLRDS [SH2D1A_Y29_G27S] | 0.476 |
| KFVKMYDNHQL [MYO9A_Y203_YF] | 0.891 |
| SSMNDYNPLEK [MYOC_Y479_I477N] | 0.645 |
| TDKLFYIFTSG [SLC27A4_Y243_YF] | 0.447 |

| Sequence | SH2 binding enrichment |
| --- | --- |
| FGRTFYNQANM [MCCC2_Y196_I200N] | 0.497 |
| VFGEEYEEQPR [ZMYM2_Y1033] | 0.679 |
| SGPRHYTIAAL [TTR_Y125_R124H] | 1.35 |
| YRDMDYRSYPH [RBM10_Y41_R46H] | 0.938 |
| RSGNCYLDIRP [FBN1_Y1535] | 0.615 |
| IHKEFYDGLFP [BCR_Y561] | 0.913 |
| KQFWRYFPGNL [SLC25A4_Y112_A114P] | 0.739 |
| KSSDVYVSFDF [SORL1_Y136_YF] | 0.497 |
| PKEQKYSFLQN [GH1_Y68] | 1.05 |
| ILCTVYAFKTR [GRM3_Y754] | 0.794 |
| PSALGYSPSLH [LLGL2_Y40_R45H] | 0.466 |
| PVQAPYQKVVA [HBB_Y131_A130P] | 0.561 |
| QGIIIYKAAFF [SLC25A4_Y187_R188K_YF] | 0.373 |
| GIVEDYRPPLY [ACVRL1_Y421_F425L] | 0.429 |
| LHNLFYQLEAE [PKP2_Y616_S615F] | 0.725 |
| DTKDDYNALSV [IL17RB_Y457] | 0.498 |

target: MERTK (UniProt Q12866); assay: phosphorylation enrichment, bacterial display (enrichment ratio); higher = better substrate or ligand; peptides without Tyr show the background
Sequence (Q12866 whole entry, looked up): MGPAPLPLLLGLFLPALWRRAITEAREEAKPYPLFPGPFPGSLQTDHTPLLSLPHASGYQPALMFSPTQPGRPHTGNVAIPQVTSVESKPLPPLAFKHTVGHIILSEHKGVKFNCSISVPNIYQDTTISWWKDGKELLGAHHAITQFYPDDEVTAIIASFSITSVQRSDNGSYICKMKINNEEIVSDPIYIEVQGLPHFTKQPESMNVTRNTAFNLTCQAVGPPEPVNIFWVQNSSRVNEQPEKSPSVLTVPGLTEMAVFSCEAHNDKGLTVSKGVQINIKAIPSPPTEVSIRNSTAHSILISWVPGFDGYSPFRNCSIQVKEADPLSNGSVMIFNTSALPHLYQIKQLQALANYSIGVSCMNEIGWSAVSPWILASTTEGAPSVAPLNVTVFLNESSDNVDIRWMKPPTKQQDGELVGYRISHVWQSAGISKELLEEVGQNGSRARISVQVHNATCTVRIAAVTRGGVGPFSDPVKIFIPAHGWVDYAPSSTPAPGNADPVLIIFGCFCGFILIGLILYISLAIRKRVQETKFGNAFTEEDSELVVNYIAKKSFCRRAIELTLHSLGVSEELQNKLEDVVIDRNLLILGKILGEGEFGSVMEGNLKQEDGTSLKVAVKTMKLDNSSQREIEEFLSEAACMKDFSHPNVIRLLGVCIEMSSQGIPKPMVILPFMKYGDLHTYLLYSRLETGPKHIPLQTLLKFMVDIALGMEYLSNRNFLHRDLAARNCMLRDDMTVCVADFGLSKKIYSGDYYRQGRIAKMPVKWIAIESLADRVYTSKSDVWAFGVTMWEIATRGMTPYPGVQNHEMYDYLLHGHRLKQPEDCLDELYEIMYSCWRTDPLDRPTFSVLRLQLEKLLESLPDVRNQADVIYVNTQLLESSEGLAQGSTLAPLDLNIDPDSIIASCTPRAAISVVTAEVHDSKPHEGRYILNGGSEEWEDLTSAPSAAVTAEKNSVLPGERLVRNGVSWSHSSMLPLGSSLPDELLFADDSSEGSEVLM

| Sequence | phosphorylation enrichment |
| --- | --- |
| QEGPEYWDQET [HLA-A_Y83] | 0.66 |
| RSYSPCDYQPC [TNS1_Y796_Y796C] | 0.726 |
| DIDKIYVRTGI [PIK3CA_Y355] | 0.33 |
| LVMFIDAIFGM [SCN1A_Y1684_Y1684D] | 1.1 |
| ASGKYYAMKIL [AKT3_Y174] | 0.591 |
| VNNTVYGIDAM [EIF3J_Y143_A141T] | 0.349 |
| LSSLAYSGKDA [FXN_Y205] | 0.307 |
| FGISGYVVDSV [MAP2K3_Y214_L215V] | 0.443 |
| ENRKFYKDLKE [PURA_Y156_M157K_YF] | 0.589 |
| HDRREYSRFEK [ITGB7_Y758_Y753H] | 0.445 |
| SSVAGYACLAY [MVD_Y131_A128V] | 0.463 |
| VRVQLYDPDFM [CYP4A22_Y100_Y104F] | 1.08 |
| KDKLPYPYDDP [GPX2_Y125] | 0.42 |
| GLDSSYLLRDS [SH2D1A_Y29_G27S] | 0.422 |
| KFVKMYDNHQL [MYO9A_Y203_YF] | 0.532 |
| SSMNDYNPLEK [MYOC_Y479_I477N] | 0.614 |
| TDKLFYIFTSG [SLC27A4_Y243_YF] | 0.538 |

| Sequence | phosphorylation enrichment |
| --- | --- |
| FGRTFYNQANM [MCCC2_Y196_I200N] | 0.411 |
| VFGEEYEEQPR [ZMYM2_Y1033] | 0.386 |
| SGPRHYTIAAL [TTR_Y125_R124H] | 0.464 |
| YRDMDYRSYPH [RBM10_Y41_R46H] | 0.357 |
| RSGNCYLDIRP [FBN1_Y1535] | 0.633 |
| IHKEFYDGLFP [BCR_Y561] | 0.823 |
| KQFWRYFPGNL [SLC25A4_Y112_A114P] | 0.402 |
| KSSDVYVSFDF [SORL1_Y136_YF] | 3.34 |
| PKEQKYSFLQN [GH1_Y68] | 1.18 |
| ILCTVYAFKTR [GRM3_Y754] | 0.609 |
| PSALGYSPSLH [LLGL2_Y40_R45H] | 0.621 |
| PVQAPYQKVVA [HBB_Y131_A130P] | 0.691 |
| QGIIIYKAAFF [SLC25A4_Y187_R188K_YF] | 0.439 |
| GIVEDYRPPLY [ACVRL1_Y421_F425L] | 0.393 |
| LHNLFYQLEAE [PKP2_Y616_S615F] | 1.6 |
| DTKDDYNALSV [IL17RB_Y457] | 0.426 |

Source: the supplement of paper PMC10065799, “High-throughput profiling of sequence recognition by tyrosine kinases and SH2 domains using bacterial peptide display” (eLife, 2023)
